Results from US20140308285A1 (Amgen, published 2014).
Like-named read-outs stand apart in the source and are kept apart here.

T1: cynomolgus monkey CD3 (CD3 epsilon chain) on cynomolgus monkey T cells (cynomolgus monkey (Macaca fascicularis), UniProt Q95LI5 22-198)
T1 chain: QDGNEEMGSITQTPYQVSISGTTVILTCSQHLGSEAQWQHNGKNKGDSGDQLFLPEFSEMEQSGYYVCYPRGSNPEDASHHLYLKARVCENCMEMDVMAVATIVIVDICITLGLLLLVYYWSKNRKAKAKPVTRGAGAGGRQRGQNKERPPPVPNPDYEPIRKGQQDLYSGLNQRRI


Experiments:
[1] = molecular target: T2, human CD3 (CD3 epsilon chain) on human T cells (human, UniProt P07766 22-207); assay: FACS on isolated human T cells, FITC anti-human light chain secondary antibody
T2 construct: The assay used isolated human T cells, which carry CD3 as part of the TCR-CD3 complex; also called CD3ε
T2 sequence (P07766 22-207 limits assumed): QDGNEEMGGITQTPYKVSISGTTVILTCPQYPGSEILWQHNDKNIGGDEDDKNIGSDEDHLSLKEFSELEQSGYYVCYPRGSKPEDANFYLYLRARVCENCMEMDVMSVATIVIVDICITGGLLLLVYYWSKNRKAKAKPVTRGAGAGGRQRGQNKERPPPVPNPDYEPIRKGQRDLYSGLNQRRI
Protocol: (§1) The heterodimeric bispecific antibodies described in Example 1 were produced in HEK 293 cells and were assayed by fluorescence activated cell sorting (FACS) for binding to T cells, which express CD3, and to a human ovarian cancer cell line, Ovcar-8, which expresses mesothelin. Briefly, the heterodimeric bispecific antibodies were incubated with about 50,000 Ovcar-8 cells or isolated human or cynomolgus monkey T cells at 4° C. for one hour. The cells were then washed and stained with a fluorescein isothiocyanate (FITC)-conjugated anti-human light chain secondary antibody and analyzed by flow cytometry. The relative binding was represented by the geometric mean of fluorescence intensity.

[2] = molecular target: T1, cynomolgus monkey CD3 (CD3 epsilon …); assay: cell-based or functional assay
[3] = molecular target: T2, human CD3 (CD3 epsilon chain) on human …; assay: FACS on isolated human T cells, FITC anti-human light chain secondary antibody; remark: listed apart in the source
Protocol: as §1
(§2) Another set of constructs was made by methods similar to those used above using the same pair of anti-MSLN VH and VL regions as used in most constructs described above and a different pair of anti-CD3 VH and VL regions than used in most of the constructs described above. […] These constructs were tested using the assays described above, as well as the cynomolgus monkey T cell-dependent cell cytolysis (called “cyno TDCC”) assay described below.

[4] = molecular target: T1, cynomolgus monkey CD3 (CD3 epsilon …); assay: FACS on isolated cynomolgus monkey T cells, FITC anti-human light chain secondary antibody
Protocol: as §1, §2

Row | Binder | FACS binding (geometric mean) [1] | Cyno TDCC EC50 (pM), Ovcar-8 cells with cynomolgus monkey T cells [2] | Cyno TDCC Max killing (%), Ovcar-8 cells with cynomolgus monkey T cells [2] | FACS binding (geometric mean) [3] | FACS binding (geometric mean) [4]
1 | P57216.9 (bispecific antibody) chain 1: QVQLQESGPGLVKPSQTLSLTCTVSGGSINNNNYYWTWIRQHPGKGLEWIGYIYYSGSTFYNPSLKSRVTISVDTSKTQFSLKLSSVTAADTAVYYCAREDTMTGLDVWGQGTLVTVSSASTKGPEVQLVESGGGLVKPGVSLRLSCAASGFTFSRYSMNWVRQAPGKGLEWVSSISSSGTYIKYADSVKGRFTISRDNAKNSLNLQMNSLRAEDTAVYYCARDRDRYPLDYWGQGTLVTVSSASTKGPSVFPLAPCSRSTSESTAALGCLVKDYFPEPVTVSWNSGALTSGVHTFPAVLQSSGLYSLSSVVTVPSSNFGTQTYTCNVDHKPSNTKVDKTVGGGGSAAAVPRDLEVVAATPTSLLISWDAPHHGVAYYRITYGETGGNSPVQEFTVPGSKSTATISGLKPGVDYTINVYAVLAYPRGYPLSKPISINYRTDYKDDDDKGSSHHHHHH chain 2: DIQMTQSPSSLSASVGDRVTITCRASQSINNYLNWYQQKPGKAPTLLIYAASSLQSGVPSRFSGSRSGTDFTLTISSLQPEDFAAYFCQQTYSNPTFGQGTKVEVKRTVAAPSSYELTQPPSVSVSPGQTARITCSGDALPKKYAYWYQQKSGQAPVLVIYEATKRPSGIPERFSGSSSGTMATLTLSGAQVEDEADYYCYSTDSTNYHWVFGGGTKLTVLGQPKAAPSVTLFPPSSEELQANKATLVCLISDFYPGAVTVAWKADSSPVKAGVETTTPSKQSNNKYAASSYLSLTPEQWKSHRSYSCQVTHEGSTVEKTVAPTECS | 103 | – | – | – | –
2 | H69072.4 (bispecific antibody) chain 1: DIQMTQSPSSVSASVGDRVTITCRASQGISSWLAWYQQKPGKAPKLLIYAASSLQSGVPSRFSGSGSGAAFTLTISSLQPEDFATYFCQQANSFPLTFAGGTKVDIKRGGGGSGGGGSQVQLQESGPGLVKPSQTLSLTCTVSGGSINNNNYYWTWIRQHPGKGLEWIGYIYYSGSTFYNPSLKSRVTISVDTSKTQFSLKLSSVTAADTAVYYCAREDTMTGLDVWGQGTTVTVSSASTKGPSVFPLAPCSRSTSESTAALGCLVKDYFPEPVTVSWNSGALTSGVHTFPAVLQSSGLYSLSSVVTVPSSNFGTQTYTCNVDHKPSNTKVDKTVGGGGSAAAVPRDLEVVAATPTSLLISWDAPHHGVAYYRITYGETGGNSPVQEFTVPGSKSTATISGLKPGVDYTINVYAVLAYPRGYPLSKPISINYRTDYKDDDDKGSSHHHHHH chain 2: DIQMTQSPSSLSASVGDRVTITCRASQSINNYLNWYQQKPGKAPTLLIYAASSLQSGVPSRFSGSRSGTDFTLTISSLQPEDFAAYFCQQTYSNPTFGQGTKVEVKGGGGSGGGGSQVQLVESGGGVVQPGRSLRLSCAASGFTFSSYGMHWVRQAPGKGLEWVAVISYPGNTKYYADSVKGRFTISRDNSKNTLYLQMNSLRAEDTAVYFCARDQKEWRLIFDYWGQGTLVTVSSRTVAAPSVFIFPPSDEQLKSGTASVVCLLNNFYPREAKVQWKVDNALQSGNSQESVTEQDSKDSTYSLSSTLTLSKADYEKHKVYACEVTHQGLSSPVTKSFNRGEC | – | 18.8 pM | 91% | 11 | 110
3 | H71365.2 (bispecific antibody, also called H71364.2) chain 1: QVQLVESGGGVVQPGRSLRLSCAASGFTFSSYGMHWVRQAPGKGLEWVAVISYPGNTKYYADSVKGRFTISRDNSKNTLYLQMNSLRAEDTAVYFCARDQKEWRLIFDYWGQGTLVTVSSGGGGSGGGGSQVQLQESGPGLVKPSQTLSLTCTVSGGSINNNNYYWTWIRQHPGKGLEWIGYIYYSGSTFYNPSLKSRVTISVDTSKTQFSLKLSSVTAADTAVYYCAREDTMTGLDVWGQGTTVTVSSASTKGPSVFPLAPCSRSTSESTAALGCLVKDYFPEPVTVSWNSGALTSGVHTFPAVLQSSGLYSLSSVVTVPSSNFGTQTYTCNVDHKPSNTKVDKTVGGGGSAAAVPRDLEVVAATPTSLLISWDAPHHGVAYYRITYGETGGNSPVQEFTVPGSKSTATISGLKPGVDYTINVYAVLAYPRGYPLSKPISINYRTDYKDDDDKGSSHHHHHH chain 2: DIQMTQSPSSVSASVGDRVTITCRASQGISSWLAWYQQKPGKAPKLLIYAASSLQSGVPSRFSGSGSGAAFTLTISSLQPEDFATYFCQQANSFPLTFAGGTKVDIKRGGGGSGGGGSDIQMTQSPSSLSASVGDRVTITCRASQSINNYLNWYQQKPGKAPTLLIYAASSLQSGVPSRFSGSRSGTDFTLTISSLQPEDFAAYFCQQTYSNPTFGQGTKVEVKRTVAAPSVFIFPPSDEQLKSGTASVVCLLNNFYPREAKVQWKVDNALQSGNSQESVTEQDSKDSTYSLSSTLTLSKADYEKHKVYACEVTHQGLSSPVTKSFNRGEC | – | 8.1 pM | 86% | 66 | 276
4 | H69070.4 (bispecific antibody) chain 1: QVQLVESGGGVVQPGRSLRLSCAASGFTFSSYGMHWVRQAPGKGLEWVAVISYPGNTKYYADSVKGRFTISRDNSKNTLYLQMNSLRAEDTAVYFCARDQKEWRLIFDYWGQGTLVTVSSASTKGPQVQLQESGPGLVKPSETLSLTCTVSGGSIISHYWSWIRQPPGKGLEWIGYIYYSGSTNYNPSLKSRVTISVDTSKNQFSLKLTSVTAADTAVYYCARDGWSAFDYWGQGTLVTVSSASTKGPSVFPLAPCSRSTSESTAALGCLVKDYFPEPVTVSWNSGALTSGVHTFPAVLQSSGLYSLSSVVTVPSSNFGTQTYTCNVDHKPSNTKVDKTVGGGGSAAAVPRDLEVVAATPTSLLISWDAPHHGVAYYRITYGETGGNSPVQEFTVPGSKSTATISGLKPGVDYTINVYAVLAYPRGYPLSKPISINYRTDYKDDDDKGSSHHHHHH chain 2: DIQMTQSPSSVSASVGDRVTITCRASQGISSWLAWYQQKPGKAPKLLIYAASSLQSGVPSRFSGSGSGAAFTLTISSLQPEDFATYFCQQANSFPLTFAGGTKVDIKRTVAAPDIQMTQSPSSLSASVGDRVTITCRASQGIRNALGWYQQKPGKAPKRLIYAASSLQSGVPSRFSGSGSGTEFTLTISSLQPEDFATYYCLQHNSYPRTFGQGTKVEIRRTVAAPSVFIFPPSDEQLKSGTASVVCLLNNFYPREAKVQWKVDNALQSGNSQESVTEQDSKDSTYSLSSTLTLSKADYEKHKVYACEVTHQGLSSPVTKSFNRGEC | – | 3 pM | 88% | 9 | 127
5 | H69071.4 (bispecific antibody, also called H69071.2) chain 1: QVQLQESGPGLVKPSQTLSLTCTVSGGSINNNNYYWTWIRQHPGKGLEWIGYIYYSGSTFYNPSLKSRVTISVDTSKTQFSLKLSSVTAADTAVYYCAREDTMTGLDVWGQGTLVTVSSGGGGSGGGGSDIQMTQSPSSVSASVGDRVTITCRASQGISSWLAWYQQKPGKAPKLLIYAASSLQSGVPSRFSGSGSGAAFTLTISSLQPEDFATYFCQQANSFPLTFAGGTKVDIKRASTKGPSVFPLAPCSRSTSESTAALGCLVKDYFPEPVTVSWNSGALTSGVHTFPAVLQSSGLYSLSSVVTVPSSNFGTQTYTCNVDHKPSNTKVDKTVGGGGSAAAVPRDLEVVAATPTSLLISWDAPHHGVAYYRITYGETGGNSPVQEFTVPGSKSTATISGLKPGVDYTINVYAVLAYPRGYPLSKPISINYRTDYKDDDDKGSSHHHHHH chain 2: QVQLVESGGGVVQPGRSLRLSCAASGFTFSSYGMHWVRQAPGKGLEWVAVISYPGNTKYYADSVKGRFTISRDNSKNTLYLQMNSLRAEDTAVYFCARDQKEWRLIFDYWGQGTLVTVSSGGGGSGGGGSDIQMTQSPSSLSASVGDRVTITCRASQSINNYLNWYQQKPGKAPTLLIYAASSLQSGVPSRFSGSRSGTDFTLTISSLQPEDFAAYFCQQTYSNPTFGQGTKVEVKRTVAAPSVFIFPPSDEQLKSGTASVVCLLNNFYPREAKVQWKVDNALQSGNSQESVTEQDSKDSTYSLSSTLTLSKADYEKHKVYACEVTHQGLSSPVTKSFNRGEC | – | 3.2 pM | 88% | 16 | 121
